For assay [1], the target named is A2Moo (ovomacroglobulin), the Xenopus laevis egg Alpha-2-Macroglobulin homolog (Xenopus laevis). Briefly: cryo-EM structure.
The target is the same in assay [2]. Briefly: cryo-EM structure. The source holds these as a separate data set.

The values that follow come from publication PMC8897276.

Where two headings read alike, the source gives them in different places.

In the case of “A2Moo (ovomacroglobulin), the Xenopus laevis egg Alpha-2-Macroglobulin homolog (from UniProt A0A8J1L4C4 1-1441) (natural protein)”, the stoichiometry N in assay [1] and in assay [2] was 4 each time.
